Data: patent US20170298096A1 (CANIMGUIDE THERAPEUTICS, published 2017)
No end group written: not given here.

T1: His-tagged P3028 peptide (PGE73) (human)
T1 construct: also called His-tag-P3028; not shown: His-tag
T1 peptide: VFDEFKPLVEEPQNLIK

B1: trypsin-generated albumin fragment SEQ ID NO: 194 KYLYEIAR (peptide)
peptide: KYLYEIAR
B2: trypsin-generated albumin fragment SEQ ID NO: 195 … (peptide)
peptide: KVPQVSTPTLVEVSR
B3: trypsin-generated albumin fragment SEQ ID NO: 196 … (peptide)
peptide: VFDEFKPLVEEPQNLIK
B4: trypsin-generated albumin fragment SEQ ID NO: 197 … (peptide)
peptide: VPQVSTPTLVEVSR
B5: trypsin-generated albumin fragment SEQ ID NO: 198 … (peptide)
peptide: RPCFSALEVDETYVPK
B6: trypsin-generated albumin fragment SEQ ID NO: 199 FQNALLVR (peptide)
peptide: FQNALLVR
B7: trypsin-generated albumin fragment SEQ ID NO: 200 … (peptide)
peptide: SLHTLFGDK
B8: trypsin-generated albumin fragment SEQ ID NO: 201 … (peptide)
peptide: LKECCEKPLLEK
B9: trypsin-generated albumin fragment SEQ ID NO: 202 LCTVATLR (peptide)
peptide: LCTVATLR
B10: trypsin-generated albumin fragment SEQ ID NO: 203 YLYEIAR (peptide)
peptide: YLYEIAR
B11: trypsin-generated albumin fragment SEQ ID NO: 204 … (peptide)
peptide: CCAAADPHECYAK
B12: trypsin-generated albumin fragment SEQ ID NO: 205 … (peptide)
peptide: AAFTECCQAADK
B13: trypsin-generated albumin fragment SEQ ID NO: 206 … (peptide)
peptide: CCTESLVNR
B14: trypsin-generated albumin fragment SEQ ID NO: 207 … (peptide)
peptide: QEPERNECFLQHK
modifications: not fully specified
B15: trypsin-generated albumin fragment SEQ ID NO: 208 … (peptide)
peptide: AVMDDFAAFVEK
B16: trypsin-generated albumin fragment SEQ ID NO: 209 NECFLQHK (peptide)
peptide: NECFLQHK
B17: trypsin-generated albumin fragment SEQ ID NO: 211 … (peptide)
peptide: QEPERNECFLQHK
modifications: not fully specified
B18: trypsin-generated albumin fragment SEQ ID NO: 212 … (peptide)
peptide: VHTECCHGDLLECADDR
B19: trypsin-generated albumin fragment SEQ ID NO: 213 … (peptide)
peptide: FKDLGEENFK
B20: trypsin-generated albumin fragment SEQ ID NO: 214 … (peptide)
peptide: YICENQDSISSK
B21: trypsin-generated albumin fragment SEQ ID NO: 215 … (peptide)
peptide: LDELRDEGK
B22: trypsin-generated albumin fragment SEQ ID NO: 216 DDNPNLPR (peptide)
peptide: DDNPNLPR
B23: Asp-N-generated albumin fragment SEQ ID NO: 217 (peptide)
peptide: DHVKLVNEVTEFAKTCVA
B24: Asp-N-generated albumin fragment SEQ ID NO: 218 (peptide)
peptide: DDKETCFAEEGKKLVAASQAALGL
B25: Asp-N-generated albumin fragment SEQ ID NO: 219 (peptide)
peptide: DRVTKCCTESLVNRRPCFSALEV
B26: Asp-N-generated albumin fragment SEQ ID NO: 220 (peptide)
peptide: DETYVPKEFNAETFTHA
B27: Asp-N-generated albumin fragment SEQ ID NO: 221 (peptide)
peptide: DSISSKLKECCEKPLLEKSHCIAEVEN
B28: Asp-N-generated albumin fragment SEQ ID NO: 222 (peptide)
peptide: DKLCTVATLRETYGEM
B29: Asp-N-generated albumin fragment SEQ ID NO: 223 (peptide)
peptide: YSVVLLLRLAKTYETTLEKCCAAADPHECYAKVF
B30: Asp-N-generated albumin fragment SEQ ID NO: 224 (peptide)
peptide: KLCTVATLRETYGEMADCCAKQEPERNECFLQHK
B31: Asp-N-generated albumin fragment SEQ ID NO: 225 (peptide)
peptide: ICTLSEKERQIKKQTALVELVKHKPKATKEQLKAVM
B32: Asp-N-generated albumin fragment SEQ ID NO: 226 (peptide)
peptide: LAKYICENQDSISSKLKECCEKPLLEKHCIAEVEN
B33: Asp-N-generated albumin fragment SEQ ID NO: 227 (peptide)
peptide: VFLGMFLYEYARRHPDYSVVLLLRLAKTYETTLEKCCAAA
B34: Asp-N-generated albumin fragment SEQ ID NO: 228 (peptide)
peptide: LGEENFKALVLIAFAQYLQQCPFEDHVKLVNEVTEFAKTCVA
B35: Asp-N-generated albumin fragment SEQ ID NO: 229 (peptide)
peptide: RVTKCCTESLVNRRPCFSALEVDETYVPKEFNAETFTFHA
B36: Asp-N-generated albumin fragment SEQ ID NO: 230 (peptide)
peptide: YLSVVLNQLCVLHEKTPVSDRVTKCCCTESLVNRRPFSALEV
B37: SEQ ID NO: 565 (peptide)
peptide: KKLDTFFVKLSLFTVR
notes: P28R variant on PEPSCAN card
B38: SEQ ID NO: 566 (peptide)
peptide: KKLDTFFVKLSLFTNR
notes: P28R variant on PEPSCAN card
B39: SEQ ID NO: 568 (peptide)
peptide: KKLDTFFVKLSLFTTR
notes: P28R variant on PEPSCAN card
B40: SEQ ID NO: 535 (peptide)
peptide: KKLDTFKVKLSLFTER
notes: P28R variant on PEPSCAN card
B41: SEQ ID NO: 536 (peptide)
peptide: KKLDTEFVKLSLFTER
notes: P28R variant on PEPSCAN card
B42: SEQ ID NO: 553 (peptide)
peptide: KKLDTDFVKLSLFTER
notes: P28R variant on PEPSCAN card
B43: SEQ ID NO: 537 (peptide)
peptide: KKLDTFFWKLSLFTER
notes: P28R variant on PEPSCAN card
B44: SEQ ID NO: 540 (peptide)
peptide: KKLDTFFMKLSLFTER
notes: P28R variant on PEPSCAN card
B45: SEQ ID NO: 545 (peptide)
peptide: KKLDTFFSKLSLFTER
notes: P28R variant on PEPSCAN card
B46: SEQ ID NO: 547 (peptide)
peptide: KKLDTFFHKLSLFTER
notes: P28R variant on PEPSCAN card
B47: SEQ ID NO: 549 (peptide)
peptide: KKLDTFFYKLSLFTER
notes: P28R variant on PEPSCAN card
B48: SEQ ID NO: 550 (peptide)
peptide: KKLDTFFNKLSLFTER
notes: P28R variant on PEPSCAN card
B49: SEQ ID NO: 570 (peptide)
peptide: KKLDTFFEKLSLFTER
notes: P28R variant on PEPSCAN card
B50: SEQ ID NO: 574 (peptide)
peptide: KKLDTFFDKLSLFTER
notes: P28R variant on PEPSCAN card
B51: SEQ ID NO: 542 (peptide)
peptide: KKLDTFFVKLSLKTER
notes: P28R variant on PEPSCAN card
B52: SEQ ID NO: 575 (peptide)
peptide: KKLDTFFVKLSLDTER
notes: P28R variant on PEPSCAN card
B53: SEQ ID NO: 579 (peptide)
peptide: KKLDTFFVKLSLETER
notes: P28R variant on PEPSCAN card
B54: SEQ ID NO: 546 (peptide)
peptide: CKLDTFFVKLSLFTER
notes: P28R variant on PEPSCAN card
B55: SEQ ID NO: 548 (peptide)
peptide: KKLDTFFVKLLLFTER
notes: P28R variant on PEPSCAN card
B56: SEQ ID NO: 567 (peptide)
peptide: KKLDTFFVKLSLFDER
notes: P28R variant on PEPSCAN card
B57: SEQ ID NO: 576 (peptide)
peptide: KKLDTFFVKLSLFEER
notes: P28R variant on PEPSCAN card
B58: SEQ ID NO: 578 (peptide)
peptide: KKLDTFFVKDSLFTER
notes: P28R variant on PEPSCAN card
B59: SEQ ID NO: 582 (peptide)
peptide: KKLDTFFVKESLFTER
notes: P28R variant on PEPSCAN card
B60: SEQ ID NO: 580 (peptide)
peptide: KKLDTFFVKLSDFTER
notes: P28R variant on PEPSCAN card
B61: SEQ ID NO: 581 (peptide)
peptide: KKLDTFFVKLSEFTER
notes: P28R variant on PEPSCAN card
B62: SEQ ID NO: 9 (peptide)
peptide: KKLDTFMVKLSLFTER
notes: P28R variant on PEPSCAN card
B63: SEQ ID NO: 10 (peptide)
peptide: KKLDTFSVKLSLFTER
notes: P28R variant on PEPSCAN card
B64: SEQ ID NO: 11 (peptide)
peptide: KKLDTFVVKLSLFTER
notes: P28R variant on PEPSCAN card
B65: SEQ ID NO: 12 (peptide)
peptide: KKLDTFTVKLSLFTER
notes: P28R variant on PEPSCAN card
B66: SEQ ID NO: 13 (peptide)
peptide: KKLDTFLVKLSLFTER
notes: P28R variant on PEPSCAN card
B67: SEQ ID NO: 7 (peptide)
peptide: KKLDTAFVKLSLFTER
notes: P28R variant on PEPSCAN card
B68: SEQ ID NO: 8 (peptide)
peptide: KKLDTVFVKLSLFTER
notes: P28R variant on PEPSCAN card

What follows are binders tested against Artificial Cell Surface (ACS): biotinylated cell surface proteins from mononuclear cells coupled to streptavidin-sepharose (assay: adsorption on ACS column, MALDI-TOF MS).

Point of comparison: B35, Percent Absorbed 100%. Against it:
- B1 — lower, 71%
- B2 — lower, 64%
- B3 — lower, 60%
- B4 — lower, 59%
- B5 — lower, 42%
- B6 — lower, 41%
- B7 — lower, 36%
- B8 — lower, 36%
- B9 — lower, 35%
- B10 — lower, 34%
- B11 — lower, 32%
- B12 — lower, 29%
- B13 — lower, 26%
- B14 — lower, 25%
- B15 — lower, 23%
- B16 — lower, 22%
- B17 — lower, 18%
- B18 — lower, 13%
- B19 — lower, 8%
- B20 — lower, 3%
- B21 — lower, 2%
- B22 — lower, 1%
- B23 — the same, 100%
- B24 — the same, 100%
- B25 — lower, 87%
- B26 — lower, 86%
- B27 — lower, 65%
- B28 — lower, 65%
- B29 — the same, 100%
- B30 — the same, 100%
- B31 — the same, 100%
- B32 — the same, 100%
- B33 — the same, 100%
- B34 — the same, 100%
- B36 — lower, 37%

Target: T1, His-tagged P3028 peptide (PGE73)
Assay: PEPSCAN ELISA; peptide on card, His-tagged P3028 in solution
Method: (§1) After washing, the peroxidase substrate 2,2′-azine-di-3-ethylbenzthiazoline sulfonate (ABTS) and 2 μL of 3% H2O2 were added. The binding capacity of the mAb was measured as a color development at 405 nm (optical density, OD405). The color development was quantified with a charge-coupled device (CCD)—camera and an image processing system.
(§2) The OD405-values obtained by a CCD-camera was considered as raw data values (“rampo values,” “rampo units,” or “rampo scores”). […] First the CCD-camera made a picture of the card before peroxidase coloring and then again a picture after the peroxidase coloring. […] These values were copied into an excel file and labeled as a raw data file. One follow-up manipulation was allowed. Sometimes a well can contain an air-bubble resulting in a false-positive value. If manual inspection of the cards detect an air-bubble the value are set to 0 for that well.

Point of comparison: B51, “RAMPO Score” value 220 rampo units. Against it:
- B37 — lower, 163 rampo units
- B38 — lower, 161 rampo units
- B39 — lower, 152 rampo units
- B40 — higher, 232 rampo units
- B41 — higher, 229 rampo units
- B42 — lower, 193 rampo units
- B43 — higher, 228 rampo units
- B44 — higher, 221 rampo units
- B45 — lower, 216 rampo units
- B46 — lower, 213 rampo units
- B47 — lower, 211 rampo units
- B48 — lower, 203 rampo units
- B49 — lower, 139 rampo units
- B50 — lower, 122 rampo units
- B52 — lower, 112 rampo units
- B53 — lower, 98 rampo units
- B54 — lower, 215 rampo units
- B55 — lower, 213 rampo units
- B56 — lower, 159 rampo units
- B57 — lower, 110 rampo units
- B58 — lower, 102 rampo units
- B59 — lower, 81 rampo units
- B60 — lower, 89 rampo units
- B61 — lower, 82 rampo units

Target: T1, His-tagged P3028 peptide (PGE73)
Assay: as above
Remark: another data set of the same source
Method: as §1, §2

B62 and B63 cannot be ordered by RAMPO Score: > 500 rampo units for the first, > 500 rampo units for the second.

B64 and B65 cannot be ordered by RAMPO Score: > 500 rampo units for the first, > 500 rampo units for the second.

B66 and B67 cannot be ordered by RAMPO Score: > 500 rampo units for the first, > 500 rampo units for the second.

With B68 the RAMPO Score was > 500 rampo units.
